Article PMC5773536

Columns and labels:
[1] = target: A3B4 subunit of glycinin accumulated in transgenic soybean seeds (post-translationally processed mature form) (Glycine max (soybean)); experiment: SEC; soluble extract of dry mature transgenic seeds on a Hi-Load 16/600 Superdex 200 pg column in potassium phosphate buffer (35 mM potassium phosphate, pH 7.6, 0.4 M NaCl), 1.0 mL/min; fractions analysed by SDS-PAGE and western blot with anti-A3B4 serum; size by comparison with molecular weight standards
[2] = target: recombinant luminal domain of GmVSR (soybean vacuolar sorting receptor) (Glycine max (soybean)); experiment: SPR; GmVSR(LU) amine-coupled on a CM5 chip (1000-1200 RU), BIACORE2000; GST fusion proteins injected 180 s, eluted with salt buffer 180 s, 25 °C, 30 uL/min; control flow cell subtracted; three independent experiments

Molecule	stoichiometry N [1]	Kd [2]
A3B4 subunit of glycinin accumulated in transgenic soybean seeds (post-translationally processed mature form) (natural protein)	6	
PQESQKRAVA [GST fused with the 10-residue C-terminal peptide of A1aB1b]		98 nM
